Test results from US20200353078A1 (AstraZeneca / MedImmune, published 2020).

Columns and labels:
[1] = molecular target: T1, Human ST2-Fc (R&D Systems, or source not stated in the example) (human, UniProt Q01638 19-328); test: SPR BIAcore 2000, ST2 captured via Fc-tag on anti-human Fc, IL-33 7.8 nM to 0.24 nM as analyte, 1:1 Langmuir
T1 construct: extracellular domain; also called sST2.Fc; sST2
T1 sequence (looked up): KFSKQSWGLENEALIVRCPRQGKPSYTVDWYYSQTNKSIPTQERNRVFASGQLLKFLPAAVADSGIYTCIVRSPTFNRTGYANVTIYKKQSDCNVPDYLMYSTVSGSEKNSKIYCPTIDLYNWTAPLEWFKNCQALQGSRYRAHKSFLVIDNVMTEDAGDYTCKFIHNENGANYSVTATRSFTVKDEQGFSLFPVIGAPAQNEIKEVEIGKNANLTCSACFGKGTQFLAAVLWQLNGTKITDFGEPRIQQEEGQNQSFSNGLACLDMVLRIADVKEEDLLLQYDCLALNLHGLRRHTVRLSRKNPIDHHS
Procedure: The disulphide bonded IL-33 is likely a very different structure to the reduced, ST2-binding IL-33 form (FIG. 22, 23), and conversion to the disulphide bonded form was associated with loss of functional activity (FIG. 17C). To investigate this, the disulphide bonded form of IL-33 was tested for ability to bind ST2 by BIAcore analysis. Direct binding of IL-33 to the extracellular domain of ST2 was determined by Surface Plasmon Resonance using a BIAcore 2000 (GE healthcare). ST2 was immobilised via the Fc-tag using an anti-human Fc capture (GE healthcare BR-1003-39) on a CM5 sensor chip (GE healthcare BR-1003-99) to give a stable surface of approximately 150 RU. IL-33 was flowed over the surface at 30 ul/min for three minutes to determine association rates. Dissociation was measured by flowing buffer at 30 ul/min for 15 minutes. Sensorgrams were interpreted using BIAevaluation software and kinetics were determined using double reference subtracted sensorgrams using a 1:1 (Langmuir) binding model.

[2] = molecular target: T2, H338L293 (SEQ ID NOs 182 and 187); test: Biacore T100, IgG captured on Protein G', 0.625-20 nM peptide as analyte, 1:1 fit
T2 construct: IgG; also called H338L293_fgl; H338L293 IgG
T2 sequence (VL, as listed by the source): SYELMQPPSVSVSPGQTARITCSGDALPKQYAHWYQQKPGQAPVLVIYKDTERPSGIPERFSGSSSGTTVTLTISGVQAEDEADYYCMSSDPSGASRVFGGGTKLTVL
From the text: The identified peptide together with a truncate ([…]) and scrambled variants of both, were then chemically synthesised and used in confirmatory T100 Biacore (GE Healthcare) binding studies. Protein G′ (Sigma Aldrich, P4689) was covalently coupled to the surface of a CM5 sensor chip (GE Healthcare) using standard amine coupling reagents according to manufacturer's instructions. The protein G′ surface was used to capture H338L293 or ST2-Fc via the Fc domain to provide a surface density of approximately 290 RU per cycle. IL33 peptides prepared in HBS-EP+ buffer, at a range of concentrations were passed over the sensor chip surface. The surface was regenerated using two 10 mM Glycine washes of pH 1.7 and pH 1.5 between each injection of antibody. The resulting sensorgrams were evaluated using Biacore T100 evaluation software 2.0.3 (GE Healthcare) and fitted to a 1:1 Langmuir binding model, to provide relative binding data.

[3] = molecular target: T3, Human IL-33 (Axxora/Adipogen AG-40B-0038) (human, UniProt O95760 112-270, limits assumed); test: cell-based or functional assay
T3 sequence (looked up): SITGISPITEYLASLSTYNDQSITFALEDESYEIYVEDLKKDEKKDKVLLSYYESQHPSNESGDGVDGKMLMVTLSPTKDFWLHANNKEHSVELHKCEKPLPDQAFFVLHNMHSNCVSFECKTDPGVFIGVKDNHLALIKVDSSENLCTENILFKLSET

[4] = molecular target: T3, Human IL-33 (Axxora/Adipogen …); test: cell-based or functional assay; remark: listed apart in the source
[5] = molecular target: T4, Human IL-33 (Axxora/Alexis ALX-522-098) (human, UniProt O95760 112-270); test: cell-based or functional assay
T4 sequence (looked up): T3 sequence (looked up)

[6] = molecular target: T3, Human IL-33 (Axxora/Adipogen …); test: cell-based or functional assay; remark: listed apart in the source
Human IL-33 Flag®His [7] = molecular target: T5, Human IL-33 Flag®His (human); test: ELISA, biotinylated antigen on streptavidin plate, anti-human IgG HRP
T5 construct: Mature IL-33 with C-terminal FLAG 10xHis tag, from E. coli; biotinylated via free cysteines where used biotinylated; also called Mature Human IL-33_FH; human IL-33 FH
T5 chain: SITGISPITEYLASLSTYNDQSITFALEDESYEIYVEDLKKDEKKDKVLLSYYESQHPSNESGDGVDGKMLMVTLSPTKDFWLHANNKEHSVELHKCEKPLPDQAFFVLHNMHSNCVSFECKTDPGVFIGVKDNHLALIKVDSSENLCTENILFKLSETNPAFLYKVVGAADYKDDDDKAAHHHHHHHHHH
Procedure: (§1) 96-well Greiner polypropylene plates (Greiner, 650201) were used for dilution preparation. Generally, each dilution was prepared in duplicate. IgG dilutions were allowed to block in PBS-M for 1 hour at room temperature before being used directly in ELISA experiments.
(§2) Streptavidin plates (Thermo Scientific, AB-1226) were coated with biotinylated antigen at 0.5 μg/ml in PBS and incubated overnight at 4° C. Plates were washed 3× with PBS and blocked with 300 μl/well blocking buffer (PBS-M) for 1 hour. Plates were washed 1× with PBS and blocked samples added, 50 μl/well for 1 hour at room temperature. […] Plates were washed 3× with PBS-T and developed with TMB, 50 μl/well (Sigma, T0440). The reaction was quenched with 50 μl/well 0.1M H2504 before reading on an EnVision™ plate reader, or similar equipment, at 450 nm.
(§3) Species cross-reactivity of anti-IL-33 antibodies was determined using a plate-based ELISA. Streptavidin plates (Thermo Scientific, AB-1226) were coated with biotinylated antigen at 0.5 μg/ml in PBS. Binding of purified IgG preparations was detected with anti-human IgG HRP (Sigma, A0170).

[8] = molecular target: T6, Cynomolgus IL-33 Flag®His (cynomolgus monkey); test: as above
T6 construct: C-terminal FLAG 10xHis tag, E. coli; also called Mature Cynomolugus IL-33; cyno IL-33 FH
T6 chain: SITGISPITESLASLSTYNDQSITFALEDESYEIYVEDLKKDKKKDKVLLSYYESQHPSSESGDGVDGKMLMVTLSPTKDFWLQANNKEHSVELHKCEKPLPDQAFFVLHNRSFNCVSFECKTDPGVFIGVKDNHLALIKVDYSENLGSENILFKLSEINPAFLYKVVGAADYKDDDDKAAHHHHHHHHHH
Procedure: as §1, §2, §3

Mouse IL-33 Flag®His [9] = molecular target: T7, Mouse IL-33 Flag®His (mouse); test: as above
T7 construct: C-terminal FLAG 10xHis tag, E. coli; also called Mature Mouse IL-33_FH; mouse IL-33 FH
T7 chain: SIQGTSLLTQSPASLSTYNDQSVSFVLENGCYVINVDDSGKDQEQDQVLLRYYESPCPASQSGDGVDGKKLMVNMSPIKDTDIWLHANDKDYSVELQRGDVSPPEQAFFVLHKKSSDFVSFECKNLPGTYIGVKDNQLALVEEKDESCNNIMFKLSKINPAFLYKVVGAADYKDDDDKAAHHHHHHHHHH
Procedure: as §1, §2, §3

Human IL-33 Flag®His [10] = molecular target: T5, Human IL-33 Flag®His; test: BIAcore 2000 solution affinity, 48 h equilibration at 25 C, free IgG read on biotinylated IL-33 chip
Procedure: The binding affinity of purified IgG samples of exemplary binding members to human, cynomolgus or mouse IL-33 was determined by solution affinity using a BIAcore 2000 (GE healthcare). A biotinylated-IL33 surface was immobilised on a streptavin coated sensor chip (GE healthcare cat. No. BR-1000-32). Anti-IL33 antibodies were incubated with various concentrations of unlabelled IL33 and equilibrated at 25° C. for 48 hours. The amount of free antibody was determined by flowing the samples over the IL33 chip and measuring the response compared to a standard curve of antibody. Affinities were determined using the solution affinity fit in BIAevaluation software. The affinities for antibodies IL330101, H338L293, IL330388, IL330396 binding to human, cynomolgus or mouse IL-33 are shown in Table 15.

Mouse IL-33 Flag®His [11] = molecular target: T7, Mouse IL-33 Flag®His; test: ELISA, biotinylated antigen on streptavidin plate, purified IgG
Procedure: as §2, §3

B1: redIL-33 (detagged human IL33-01, BK349) (ligand, UniProt O95760 112-270, looked up)
chain: T3 sequence (looked up)
notes: Reduced form; also called reduced IL-33; Human IL33-01 detagged
[1]
  Kd: 0.2 nM

B2: Truncated IL-33 epitope peptide (peptide)
peptide: LSPTKDFWLHANNKEHSVELHK
notes: Chemically synthesised; also called truncate peptide
[2]
  Kd: 2.36 nM

B3: IL330101 IgG (antibody, V domains shown)
VH: EVQLLESGGGLVQPGGSLRLSCAASGFTFSSYAMSWVRQAPGKGLEWVSAISGSGGSTYYADSVKGRFTISRDNSKNTLYLQMNSLRAEDTAVYYCVRVVAGYFDSWGRGTLVTVSS
VL: SYVLTQPPSVSVSPGQTARITCSGDALPKQYAHWYQQKPGQAPALVIYKDTERPSGIPERFSGSSSGTTVTLTISGVQAEDEADYYCQSADSSGASRVFGGGTKVTVL
notes: IgG1 or IgG1-TM; also called mAb IL330101; IL3300101
[3]
  Huvec IL-6 production, maximum inhibition: ~70%
  Mast cell IL-6 production, inhibition: 100%
[4]
  IC50 (geomean), Huvec IL-6 production: 497 nM
  IC50 (geomean), Mast cell IL-6 production: 49 nM
[5]
  IC50, TF-1 proliferation: 149 nM
[6]
  IC50, Huvec IL-6 production: 193 nM
  IC50, Mast cell IL-6 production: 93 nM
Human IL-33 Flag®His [7]
  EC50: 1.19 nM
[8]
  EC50: 1.2 nM
Mouse IL-33 Flag®His [9]
  EC50: 0.85 nM
Human IL-33 Flag®His [10]
  Kd: 0.0032 pM

B4: IL330065 IgG (antibody, V domains shown)
VH: EVQLVQSGAEVKKPGTAVKISCKASGYTFTDYYIHWVQQAPGKGLEWMGLVDPEDGETKYAEKFQGRVSITADTSTDTAYMELRSLTSEDTAVYFCTMGWAQWGRGTLVTVSS
VL: QSVLTQPPSASGTPGQRVTISCSGSSSNIGSNYVYWYQQVPGTAPKLVIYRDFQRPSGVPDRFSGSKSGNSASLVISGLRSEDEGEYVCAAWDDSLTGPRFGGGTKVTVL
notes: IgG1 or IgG1-TM (L234F, L235E, P331S); functional data combine both formats
[4]
  IC50 (geomean), Huvec IL-6 production: 87 nM
  IC50 (geomean), Mast cell IL-6 production: 12 nM
[5]
  IC50 (geomean), TF-1 proliferation: 81 nM
Mouse IL-33 Flag®His [11]
  binding result: no binding
Human IL-33 Flag®His [7]
  EC50: 0.65 nM
[8]
  EC50: 0.66 nM
